Reference: publication PMC3589453, “Structural Characterization of the Self-Association of the Death Domain of p75^NTR” (PLoS ONE, 2013)

Tests used:
[1] = target: p75DD-Fusion (chimera of the p75NTR death domain and a p75-interacting peptide from NRIF) (rat | not stated) (UniProt P07174); test: SEC; purified p75NTR constructs and their mutants on a Superdex 75 column; monomer and dimer peaks; some runs with beta-ME or DTNB
[2] = target: p75CTD symmetric dimer (dimer of the C416S mutant of p75CTD) (rat) (UniProt P07174); test: SPR; Biacore 3000, 25 °C; p75CTD monomer and dimer coupled onto a CM-5 chip at equal molarities; NRIF peptide flowed over; 50 mM Hepes-KOH pH 7.5, 100 mM KCl, 5% glycerol, 0.005% Tween-20
[3] = target: T1, p75CTD monomer (p75CTD C379S/C416S) (rat, UniProt P07174 334-425, C379S | C416S, biotinylated for the BLI assay); test: BLI
T1 sequence: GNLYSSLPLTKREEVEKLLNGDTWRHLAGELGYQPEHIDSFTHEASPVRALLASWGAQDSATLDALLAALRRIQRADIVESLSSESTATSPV

[4] = target: T2, p75CTD monomer (p75CTD C379S/C416S) (rat, UniProt P07174 334-425, C379S | C416S, biotinylated for the BLI assay); test: BLI; Octet (ForteBio); biotinylated p75CTD proteins loaded on Streptavidin High Binding FA biosensors; RIP2 CARD in solution at 5 µM, then 20, 10, 5 and 2 µM for the monomer; 50 mM Hepes-NaOH pH 7.5, 100 mM NaCl, 5% glycerol, 1 mM EDTA; settings: both partners purified
T2 construct: p75NTR, rat, residues 334-425; Mutant of m3; the tag is that of the parent construct; Biotinylated for BLI, coupled onto a CM-5 chip for SPR; also called double cysteine residue mutant
T2 sequence (looked up): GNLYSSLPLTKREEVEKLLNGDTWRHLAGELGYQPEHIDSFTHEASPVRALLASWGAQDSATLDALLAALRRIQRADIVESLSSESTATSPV

[5] = target: the molecule itself; test: SEC; purified p75NTR constructs and their mutants on a Superdex 75 column; monomer and dimer peaks; some runs with beta-ME or DTNB
[6] = target: the molecule itself; test: crystal structure; p75DD modified with DTNB; sitting drop, 4 °C, 0.1 M Bis-Tris propane pH 7.0, 1.2 M sodium citrate; asymmetric dimer in the crystal lattice
[7] = target: T2, p75CTD monomer (p75CTD C379S/C416S); test: SPR; Biacore 3000, 25 °C; p75CTD monomer and dimer coupled onto a CM-5 chip at equal molarities; NRIF peptide flowed over; 50 mM Hepes-KOH pH 7.5, 100 mM KCl, 5% glycerol, 0.005% Tween-20; settings: both partners purified
[8] = target: the molecule itself; test: immunoprecipitation and non-reducing SDS-PAGE immunoblot; HA-p75NTR in transfected HEK 293T cells without ligand; lysate in 40 mM Tris pH 7.6, 150 mM NaCl, 0.5% NP-40, 10% glycerol; anti-HA immunoprecipitates boiled with or without DTT, blotted with anti-HA

p75DD-Fusion (chimera of the p75NTR death domain and a p75-interacting peptide from NRIF) (from UniProt P07174 334-418)
stoichiometry N [1]: 2

NRIF peptide (residues 552-577), chemically synthesized
Kd [2]: 10 µM

B1: Human RIP2 CARD domain (residues 438-524) (domain or fragment, UniProt O43353 438-524, looked up)
chain: QWIQSKREDIVNQMTEACLNQSLDALLSRDLIMKEDYELVSTKPTRTSKVRQLLDTTDIQGEEFAKVIVQKLKDNKQMGLQPYPEIL
notes: pET24a vector; also called CARD protein; source: E. coli, purified (similar to p75DD)
Kd [3]: 0.24 µM | fold stronger than the NRIF peptide on p75CTD (KD about 10^-5 M) [4]: ~100 fold

B2: p75CTD C416S (domain or fragment, rat, UniProt P07174 334-425, looked up)
chain: GNLYSSLPLTKREEVEKLLNGDTWRHLAGELGYQPEHIDSFTHEACPVRALLASWGAQDSATLDALLAALRRIQRADIVESLSSESTATSPV
notes: p75NTR, rat, residues 334-425; Mutant of m3, the single chain for its self-association; the isolated dimer is m12; also called C416S mutant of p75CTD
stoichiometry N [5]: 2

B3: p75CTD (rat p75NTR residues 334-425) (domain or fragment, UniProt P07174 334-425, looked up)
chain: GNLYSSLPLTKREEVEKLLNGDTWRHLAGELGYQPEHIDSFTHEACPVRALLASWGAQDSATLDALLAALRRIQRADIVESLCSESTATSPV
notes: p75NTR, rat, death domain and C-terminal tail, residues 334-425; pET24a vector; source: E. coli BL21, purified (Ni-NTA, size-exclusion chromatography)
stoichiometry N [5]: 2

B4: p75DD (rat p75NTR death domain, residues 334-418) (domain or fragment, UniProt P07174 334-418, looked up)
chain: GNLYSSLPLTKREEVEKLLNGDTWRHLAGELGYQPEHIDSFTHEACPVRALLASWGAQDSATLDALLAALRRIQRADIVESLCSE
notes: p75NTR (neurotrophin receptor p75), rat, death domain, residues 334-418; pET24a vector; Not treated with DTNB in the solution experiments (the DTNB-treated crystal form is m2); also called His6-tagged p75DD; source: E. coli BL21, purified (Ni-NTA, size-exclusion chromatography); also co-expressed in E. coli with GST-tagged NRIF loop region (521-661); not shown: His6, C-terminal, kept
stoichiometry N [5]: 2

B5: p75DD modified with DTNB (as crystallised) (domain or fragment, rat, UniProt P07174 334-418, looked up)
chain: GNLYSSLPLTKREEVEKLLNGDTWRHLAGELGYQPEHIDSFTHEACPVRALLASWGAQDSATLDALLAALRRIQRADIVESLCSE
modifications: Cys379 and Cys416 modified by DTNB (MNB group)
notes: p75NTR, rat, death domain, residues 334-418 (334-417 traced in the structure); Same construct as m1 after treatment with DTNB at a 5:1 molar ratio; also called DTNB-modified p75DD; source: E. coli BL21, purified (Ni-NTA, size-exclusion chromatography), then modified with DTNB
binding result [6]: binds

B6: p75ICD (rat p75NTR intracellular region, residues 280-425) (domain or fragment, UniProt P07174 280-425, looked up)
chain: KQNKQGANSRPVNQTPPPEGEKLHSDSGISVDSQSLHDQQTHTQTASGQALKGDGNLYSSLPLTKREEVEKLLNGDTWRHLAGELGYQPEHIDSFTHEACPVRALLASWGAQDSATLDALLAALRRIQRADIVESLCSESTATSPV
notes: p75NTR, rat, intracellular region, residues 280-425; pET24a vector; source: E. coli BL21, purified (Ni-NTA, size-exclusion chromatography)
stoichiometry N [5]: 2

MESGAGRASDNSLLTHALPVKSHQKG [NRIF peptide (residues 552-577), chemically synthesized]
Kd [7]: ~10 µM

B7: full-length rat p75NTR with N-terminal HA tag (receptor, UniProt P07174 30-425, looked up)
chain: KETCSTGLYTHSGECCKACNLGEGVAQPCGANQTVCEPCLDNVTFSDVVSATEPCKPCTECLGLQSMSAPCVEADDAVCRCAYGYYQDEETGHCEACSVCEVGSGLVFSCQDKQNTVCEECPEGTYSDEANHVDPCLPCTVCEDTERQLRECTPWADAECEEIPGRWIPRSTPPEGSDSTAPSTQEPEVPPEQDLVPSTVADMVTTVMGSSQPVVTRGTTDNLIPVYCSILAAVVVGLVAYIAFKRWNSCKQNKQGANSRPVNQTPPPEGEKLHSDSGISVDSQSLHDQQTHTQTASGQALKGDGNLYSSLPLTKREEVEKLLNGDTWRHLAGELGYQPEHIDSFTHEACPVRALLASWGAQDSATLDALLAALRRIQRADIVESLCSESTATSPV
notes: p75NTR, rat, full length; pCDNA3 construct, a gift; also called wildtype; full-length p75NTR; source: HEK 293T, transiently transfected, in lysate; not shown: HA, N-terminal, kept
stoichiometry N [8]: 2
